Data published in article PMC4298015.

Legend:
GST-Gli1ZF-WT = GST-Gli1ZF-WT (UniProt P08151 242-424); assay: EMSA
GST-Gli1ZF-K350A = GST-Gli1ZF-K350A (UniProt P08151 242-424, K350A); assay: EMSA
GST-Gli1ZF-K350A, sequence (P08151 242-424 K350A): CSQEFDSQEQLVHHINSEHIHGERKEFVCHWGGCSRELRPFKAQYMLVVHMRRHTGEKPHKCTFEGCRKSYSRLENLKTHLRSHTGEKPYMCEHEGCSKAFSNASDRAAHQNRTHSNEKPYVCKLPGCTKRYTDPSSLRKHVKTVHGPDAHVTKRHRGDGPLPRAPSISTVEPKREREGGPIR

GST-Gli1ZF-WT, sequence (P08151 242-424): as the sequence (P08151 242-424 K350A) above, with A109K counted along it

B1: GliBS (dsDNA)
DNA 1: TTGCCTACCTGGGTGGTCTCTCCACTT
DNA 2: AAGTGGAGAGACCACCCAGGTAGGCAA
B1: binds (GST-Gli1ZF-WT); no binding (GST-Gli1ZF-K350A).
